The values that follow come from article PMC7736783 (Nucleic Acids Research, 2020).

The data set addresses MTA1 (BAH-ELM2-SANT-ZnF);HDAC1;MBD2 (Homo sapiens?;Homo sapiens?;Homo …, UniProt Q13330;Q13547;Q9UBB5 1-453;1-482;145-411, ||). The data set can be described thus: EMSA; 1 uM DNA with 1- to 10-fold excess of complex; single bound species; EMSA: 20 mM HEPES pH 7.0, 75 mM potassium acetate, 2 mM DTT, 20 min on ice; 5% acrylamide gel in 0.5x TB. The conditions noted are these: protein: recombinant;recombinant;recombinant; tags: His10-Flag3 N-terminal, removed by TEV;none;none; chain copies: 2;2;1; label: none (ethidium bromide stain); blunt (annealed complementary oligonucleotides). A general note: A gel shift assay detects complexes by their altered migration in electrophoresis.

Chain of MTA1 (BAH-ELM2-SANT-ZnF);HDAC1;MBD2 (Q13330 1-453, chain 1 of 3): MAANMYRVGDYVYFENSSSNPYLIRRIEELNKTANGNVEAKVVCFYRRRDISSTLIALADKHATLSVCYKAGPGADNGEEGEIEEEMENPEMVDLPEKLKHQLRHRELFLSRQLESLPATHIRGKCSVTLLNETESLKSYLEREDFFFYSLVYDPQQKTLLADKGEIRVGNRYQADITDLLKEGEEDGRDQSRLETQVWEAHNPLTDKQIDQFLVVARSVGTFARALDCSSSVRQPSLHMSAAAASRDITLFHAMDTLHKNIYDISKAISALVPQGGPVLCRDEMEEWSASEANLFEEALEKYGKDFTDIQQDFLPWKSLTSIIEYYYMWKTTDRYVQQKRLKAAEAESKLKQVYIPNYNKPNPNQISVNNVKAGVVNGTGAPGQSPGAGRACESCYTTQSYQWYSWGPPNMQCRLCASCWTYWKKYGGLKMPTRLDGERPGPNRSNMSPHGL
Chain of MTA1 (BAH-ELM2-SANT-ZnF);HDAC1;MBD2 (Q13547 whole entry, chain 2 of 3): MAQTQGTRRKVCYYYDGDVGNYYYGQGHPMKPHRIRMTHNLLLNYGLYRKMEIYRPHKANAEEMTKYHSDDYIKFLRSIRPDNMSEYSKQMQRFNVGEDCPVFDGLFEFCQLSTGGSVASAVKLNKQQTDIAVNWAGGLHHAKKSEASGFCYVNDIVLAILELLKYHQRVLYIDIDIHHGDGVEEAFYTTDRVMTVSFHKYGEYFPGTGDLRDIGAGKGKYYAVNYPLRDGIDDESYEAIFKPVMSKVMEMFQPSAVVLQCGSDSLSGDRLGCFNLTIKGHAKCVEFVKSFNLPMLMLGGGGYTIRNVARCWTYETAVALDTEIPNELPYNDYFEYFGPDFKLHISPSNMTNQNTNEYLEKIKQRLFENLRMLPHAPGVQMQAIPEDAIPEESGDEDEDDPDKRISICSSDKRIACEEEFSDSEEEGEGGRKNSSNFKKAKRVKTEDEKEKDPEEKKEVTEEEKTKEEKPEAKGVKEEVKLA
Chain of MTA1 (BAH-ELM2-SANT-ZnF);HDAC1;MBD2 (Q9UBB5 145-411, chain 3 of 3): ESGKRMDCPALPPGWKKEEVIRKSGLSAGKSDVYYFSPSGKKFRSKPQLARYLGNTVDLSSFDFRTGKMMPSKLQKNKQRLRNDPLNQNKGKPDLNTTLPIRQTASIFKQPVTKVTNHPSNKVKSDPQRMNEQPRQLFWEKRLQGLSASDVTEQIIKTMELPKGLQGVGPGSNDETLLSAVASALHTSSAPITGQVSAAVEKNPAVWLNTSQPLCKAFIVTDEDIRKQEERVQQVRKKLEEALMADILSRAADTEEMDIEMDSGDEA

B1: methylated DNA duplex 15 nt (dsDNA)
DNA 1: GGAATCGGCTCATGC
DNA 2: GCATGAGCCGATTCC
modifications: 5-methylcytosine at C6 of strand 1 (printed mC in CpG); methylation of the complementary strand not stated
With B1, the binding result was “binds”.
